Measurements from patent US20210145976A1.
Positions count from the first letter of the chain named.

B1: SEQ ID NO 84 (designed binder)
chain: MLPAPKNLVVSRVTEDSARLSWTAPDAAFDSFPIYYWEVFPAGEAIELDVPGSERSYDLTGLKPGTEYFVRIEGVKGGASSYPLRAEFTT
B2: SEQ ID NO 85 (designed binder)
chain: MLPAPKNLVVSRVTEDSARLSWTAPDAAFDSFFIWYWEKSVDGEAIVLTVPGSERSYDLTGLKPGTEYNVGIQGVKGGTPSDPLSAIFTT
B3: SEQ ID NO 86 (designed binder)
chain: B2 chain with F33I, W37A, K39W, S40V, V41N, N69R, G71E, Q73T, P80W, D82R
B4: SEQ ID NO 35 (designed binder)
chain: MLPAPKNLVVSRVTEDSARLSWTAPDAAFDSFEIAYFEAIWNGEAIYLTVPGSERSYDLTGLKPGTEYQVEIRGVKGGPTSRPLFAWFTT
B5: SEQ ID NO 88 (designed binder)
chain: MLPAPKNLVVSRVTEDSARLSWTAPDAAFDSFWIEYFEWTVGGEAIVLTVPGSERSYDLTGLKPGTEYYVSIYGVKGGWLSPPLSAIFTT
B6: SEQ ID NO 90 (designed binder)
chain: MLPAPKNLVVSRVTEDSARLSWTAPDAAFDSFTIHYWEFDPPGEAIVLTVPGSERSYDLTGLKPGTEYTVYIEGVKGGWWSKPLSAIFTT
B7: SEQ ID NO 91 (designed binder)
chain: B6 chain with T33V, H35E, F39R, D40T, P41Q, T69D, Y71W, E73S, W79K, K82E
B8: SEQ ID NO 93 (designed binder)
chain: MLPAPKNLVVSRVTEDSARLSWTAPDAAFDSFYIGYLEPGDNGEAIVLTVPGSERSYDLTGLKPGTEYNVSIGGVKGGLGSYPLSAIFTT
B9: SEQ ID NO 94 (designed binder)
chain: MLPAPKNLVVSRITEDSARLSWTAPDAAFDSFGIYYYEWWSTGEAIVLTVPGSERSYDLTGPKPGTEYYVKISGVKGGYRSYPLSAIFTT
B10: SEQ ID NO 95 (designed binder)
chain: MLPAPKNLVVSRVTEDSARLSWTAPDAAFDSFRISYYEWYDLGEAIVLTVPGSERSYDLTGLKPGTEYWVDIAGVKGGYYSYPLSAIFTT
B11: SEQ ID NO 36 (designed binder)
chain: MLPAPKNLVVSRVTEDSARLSWTAPDAAFDSFTITYIEWWENGEAIALSVPGSERSYDLTGLKPGTEYQVGIAGVKGGYKSYPLWALFTT
B12: SEQ ID NO 97 (designed binder)
chain: MLPAPKNLVVSRVTEDSARLSWTAPDAAFDSFFISYFEGWASGEAIHLYVPGSERSYDLTGLKPGTEYSVHIQGVKGGQPSTPLSAIFTT
B13: SEQ ID NO 98 (designed binder)
chain: B6 chain with V13I, T33D, H35P, W37G, P41T, P42I, T69D, W79H, W80L, K82W
B14: SEQ ID NO 99 (designed binder)
chain: MLPAPKNLVVSRVTEDSARLSWTAPDAAFDSFGIQYNEFVFRGEAIVLTVPGSERSYDLTGLKPGTEYFVPISGVKGGDDSRPLSAIFTT
B15: SEQ ID NO 100 (designed binder)
chain: B2 chain with F33W, W35E, K39V, S40V, V41G, D42F, N69W, Q73Y, T79N, D82V
B16: SEQ ID NO 101 (designed binder)
chain: MLPAPKNLVVSRVTEDSARLSWTAPDAAFDSFAIDYDEPINSGEAIVLTVPGSERSYDLTGPKPGTEYEVEIYGVKGGYLSRPLSAIFTT
B17: SEQ ID NO 102 (designed binder)
chain: MLPAPKNLVVSRVTEDSARLSWTAPDAAFDSFSIDYDEPQPVGEAIVLTVPGSERSYDLTGLKPGTEYRVDIWGVKGGPTSGPLRATFTT
B18: SEQ ID NO 103 (designed binder)
chain: B5 chain with P3L, W33A, W39Y, V41G, G42E, S71G, W79Y, P82R
B19: SEQ ID NO 104 (designed binder)
chain: B16 chain with R12H, A33D, D35E, D37Y, P39L, I40V, N41G, P62L, E69Y, E71A
B20: SEQ ID NO 105 (designed binder)
chain: MLPAPKNLVVSRVTEDSARLSWTAPDAAFDSFGIAYYERSGAGEAIVLTVPGSERSYDLTGLKPGTEYMVYINGVKGGFVSSPLSAIFTT
B21: SEQ ID NO 106 (designed binder)
chain: MLPAPKNLVVSRVTEDSARLSWTAPDAAFDSFTIAYEEHGLVGEAIYLRVPGSERSYDLTGLKPGTEYHVGIMGVKGGVFSSPLSAIFTT
B22: SEQ ID NO 37 (designed binder)
chain: MLPAPKNLVVSRVTEDSARLSWTAPDAAFDSFHIIYTEEEKEGEAIYLRVPGSERSYDLTGLKPGTEYLVEIEGVKGGKRSVPLNASFTT
B23: SEQ ID NO 107 (designed binder)
chain: B14 chain with G33F, N37T, F39S, V40H, F41W, R42V, F69A, S73E, D80S, R82T
B24: SEQ ID NO 109 (designed binder)
chain: B21 chain with T33H, H39L, G40V, L41T, V42E, H69L, G71D, M73E, V79H, F80L
B25: SEQ ID NO 110 (designed binder)
chain: MLPAPKNLVVSRVTEDSARLSWTAPDAAFDSFFIHYHEWWEAGEAIVLTVPGSERSYDLTGLKPGTEYLVDIPGVKGGDLSVPLSAIFTT
B26: SEQ ID NO 111 (designed binder)
chain: MLPAPKNLVVSRVTEDSARLSWTAPDAAFDSFWIYYYESVGTGEAIVLTVPGSERSYDLTGLKPGTEYFVDISGVKVGTYSLPLSAIFTT
B27: SEQ ID NO 113 (designed binder)
chain: MLPAPKNLVVSRVTEDSARLSWTAPDAAFDSFDIHYKEHSWWGEAIVLTVPGSERSYDLTGLKPGTEYIVPIPGVKGGGISRPLSAIFTT
B28: SEQ ID NO 114 (designed binder)
chain: B16 chain with D35E, D37W, P39A, I40V, N41G, P62L, E69H, E71Y, R82L
B29: SEQ ID NO 115 (designed binder)
chain: MLPAPKNLVVSRVTEDSARLSWTAPDAAFDSFFIGYLEPQPPGEAIVLTVPGSERSYDLTGLKPGTEYNVTIQGVKGGFPSMPLSAIFTTT
B30: SEQ ID NO 38 (designed binder)
chain: MLPAPKNLVVSRVTEDSARLSWTAPDAAFDSFHIAYEESHTTGEAIFLRVPGSERSYDLTGLKPGTEYSVSIEGVKGGHYSPPLTAKFTT

Molecular target: human serum albumin (human) (UniProt P02768)
Test: screening ELISA

Chain of human serum albumin (human) (P02768 25-609 limits assumed): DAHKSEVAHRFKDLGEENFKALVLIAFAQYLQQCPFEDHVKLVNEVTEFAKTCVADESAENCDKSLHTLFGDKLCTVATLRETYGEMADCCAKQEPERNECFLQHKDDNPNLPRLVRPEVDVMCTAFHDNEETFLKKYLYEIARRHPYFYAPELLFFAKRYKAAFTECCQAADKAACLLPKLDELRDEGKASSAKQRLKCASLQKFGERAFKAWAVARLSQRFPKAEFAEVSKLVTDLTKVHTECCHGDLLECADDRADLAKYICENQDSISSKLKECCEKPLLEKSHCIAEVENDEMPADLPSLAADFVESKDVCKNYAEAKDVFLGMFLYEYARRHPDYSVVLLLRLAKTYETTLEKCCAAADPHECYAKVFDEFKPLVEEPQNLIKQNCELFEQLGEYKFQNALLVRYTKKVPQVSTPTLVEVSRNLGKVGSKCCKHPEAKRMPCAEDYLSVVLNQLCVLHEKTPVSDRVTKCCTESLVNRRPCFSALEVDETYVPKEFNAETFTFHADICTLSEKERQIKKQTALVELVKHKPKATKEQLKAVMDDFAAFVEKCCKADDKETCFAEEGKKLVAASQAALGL

Compared with B1, B2 is lower in HSA: 3850 for the first, 2500 for the second.

Going from B3 to B4, the HSA falls from 2250 to 1520.

Going from B5 to B6, the HSA falls from 6000 to 2550.

First: B7
Second: B8
The HSA of the first is higher: 1800 for the first, 1650 for the second.

Going from B9 to B10, the HSA falls from 9900 to 1900.

Compared with B11, B12 is lower in HSA: 6160 for the first, 2200 for the second.

Compared with B13, B14 is lower in HSA: 15500 for the first, 8150 for the second.

Compared with B15, B16 is higher in HSA: 2350 for the first, 9100 for the second.

First: B17
Second: B18
The HSA of the first is higher: 13400 for the first, 1200 for the second.

First: B19
Second: B20
The HSA of the first is higher: 1700 for the first, 1400 for the second.

First: B21
Second: B22
The HSA of the first is lower: 1200 for the first, 2720 for the second.

Going from B23 to B24, the HSA falls from 4050 to 1250.

Compared with B25, B26 is lower in HSA: 18800 for the first, 7450 for the second.

Compared with B27, B28 is lower in HSA: 22600 for the first, 4200 for the second.

Going from B29 to B30, the HSA rises from 3450 to 4160.
